Source: IntAct's records for PubMed 10887186

Biological target: nrl_human NRL (UniProt P54845)
Sequence (P54845 whole entry): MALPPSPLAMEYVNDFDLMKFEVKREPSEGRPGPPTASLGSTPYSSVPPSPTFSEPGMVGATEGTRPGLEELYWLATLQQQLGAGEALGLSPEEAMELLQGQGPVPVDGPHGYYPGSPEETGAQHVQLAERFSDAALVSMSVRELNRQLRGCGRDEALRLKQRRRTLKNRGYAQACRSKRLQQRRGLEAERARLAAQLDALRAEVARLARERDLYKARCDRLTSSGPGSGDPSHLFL

Sequence of Cone-rod homeobox protein (Bos taurus (Bovine)), Q9XSK0 R90W (Q9XSK0 whole entry R90W): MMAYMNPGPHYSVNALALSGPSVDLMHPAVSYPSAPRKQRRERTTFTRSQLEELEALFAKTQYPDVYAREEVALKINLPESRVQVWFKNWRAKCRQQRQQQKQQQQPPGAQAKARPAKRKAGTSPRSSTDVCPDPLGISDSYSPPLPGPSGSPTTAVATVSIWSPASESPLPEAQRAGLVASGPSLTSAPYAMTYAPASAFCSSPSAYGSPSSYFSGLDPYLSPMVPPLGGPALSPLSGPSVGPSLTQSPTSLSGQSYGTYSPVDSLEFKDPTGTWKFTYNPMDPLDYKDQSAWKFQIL
Sequence of Cone-rod homeobox protein (Bos taurus (Bovine)), Q9XSK0 R41W (Q9XSK0 whole entry R41W): as the sequence (Q9XSK0 whole entry R90W) above, with R41W, W90R counted along it

Row | Substance | effect of a mutation on the interaction
1 | Cone-rod homeobox protein (Bos taurus (Bovine)), Q9XSK0 R41W | decreasing interaction
2 | Cone-rod homeobox protein (Bos taurus (Bovine)), Q9XSK0 R90W | decreasing interaction
